Paper doi:10.1101/2025.08.22.671821, “Cross-regulation of (p)ppGpp and c-di-GMP pathways controls a cell-cycle transition” (bioRxiv, 2025)

Target: the molecule itself
Assay: crystal structure; PleD 5 mg/mL with 0.5 µM c-di-GMP and 5 mM ppGpp or pppGpp; sitting-drop vapor diffusion at 19°C; space group P6(1)22, 4 molecules per asymmetric unit; 2.9 Å (ppGpp) and 3 Å (pppGpp)

B1: PleD diguanylate cyclase from Caulobacter crescentus (enzyme)
chain: MSARILVVDDIEANVRLLEAKLTAEYYEVSTAMDGPTALAMAARDLPDIILLDVMMPGMDGFTVCRKLKDDPTTRHIPVVLITALDGRGDRIQGLESGASDFLTKPIDDVMLFARVRSLTRFKLVIDELRQREASGRRMGVIAGAAARLDGLGGRVLIVDDNERQAQRVAAELGVEHRPVIESDPEKAKISAGGPVDLVIVNAAAKNFDGLRFTAALRSEERTRQLPVLAMVDPDDRGRMVKALEIGVNDILSRPIDPQELSARVKTQIQRKRYTDYLRNNLDHSLELAVTDQLTGLHNRRYMTGQLDSLVKRATLGGDPVSALLIDIDFFKKINDTFGHDIGDEVLREFALRLASNVRAIDLPCRYGGEEFVVIMPDTALADALRIAERIRMHVSGSPFTVAHGREMLNVTISIGVSATAGEGDTPEALLKRADEGVYQAKASGRNAVVGKAA
notes: PleD, response regulator and diguanylate cyclase of Caulobacter crescentus (receiver domain D1, adaptor domain D2, DGC domain); expressed from pET11b-pleD; In the crystals each monomer carries two c-di-GMP at the I-site, and one (p)ppGpp and a Mg2+ in the active site; also called PleDCC; source: E. coli BL21(DE3), purified (Ni-NTA, SEC)
binding result: binds
